Tests used:
thrombin = thrombin (Rattus norvegicus, UniProt P18292;P18292 P18292:311-359,P18292:360-617); assay: BLI; biotinylated aptamer on streptavidin sensor, 1:1 fit; printed as "-0.6 nM"; settings: label: 5' biotin (ELISA, BLI); predicted hairpin, possible G4
Description: The biosensors were then exposed to varying concentrations of rat thrombin protein, allowing real-time monitoring of thrombin binding to the aptamer. Kinetic parameters were derived by fitting the BLI binding curves to a 1:1 binding model.

alpha-thrombin (native) = alpha-thrombin (native) (Homo sapiens, UniProt P00734;P00734 P00734:315-363,P00734:364-622); assay: ELONA; 20 mM Tris pH 7.5, 150 mM NaCl, 0.1% BSA, 0.1% Tween 20, salmon sperm DNA, RT; competed by 100-fold unlabeled aptamer

B1: AYA1809002 (ssDNA)
DNA: GCGGTGTTGCTGGGGTTGGGAGGTTGGAGGAAGCAATCGC
- Kd (thrombin): ~0.6 nM
- Kd (alpha-thrombin (native)): 10 nM

— patent publication US20250304973, “HIGH-AFFINITY THROMBIN APTAMERS AND METHODS OF USE” (Ayass Bioscience LLC, published 2025)
